Several values for one entry are separate records, joined by “and”; a condition that tells them apart may be missing. Equal values may be shown once.
Biological target: Pyruvate kinase M2 (mouse (endogenous in mouse skin)) (UniProt P52480)
Assay: not stated; detection of dimeric and tetrameric PKM2 protein levels in the skin from sham and skin flap mice on postoperative day 7

Sequence of Pyruvate kinase M2, P52480 1-531 (enzyme; other documents disagree on this pair) (P52480 whole entry): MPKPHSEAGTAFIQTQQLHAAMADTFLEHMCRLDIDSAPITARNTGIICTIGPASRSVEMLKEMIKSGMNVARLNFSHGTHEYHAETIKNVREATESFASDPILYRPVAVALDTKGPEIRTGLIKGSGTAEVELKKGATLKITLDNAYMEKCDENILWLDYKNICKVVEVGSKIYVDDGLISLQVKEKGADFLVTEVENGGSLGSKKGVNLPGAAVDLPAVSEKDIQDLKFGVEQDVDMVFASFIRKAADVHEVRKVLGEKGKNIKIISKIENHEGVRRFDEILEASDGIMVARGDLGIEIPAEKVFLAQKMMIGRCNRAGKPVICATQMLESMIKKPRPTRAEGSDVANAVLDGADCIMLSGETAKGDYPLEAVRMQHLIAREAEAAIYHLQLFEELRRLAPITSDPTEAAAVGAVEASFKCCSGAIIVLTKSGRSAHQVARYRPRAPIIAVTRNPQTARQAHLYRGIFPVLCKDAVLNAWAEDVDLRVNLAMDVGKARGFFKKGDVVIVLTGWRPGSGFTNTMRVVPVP

Pyruvate kinase M2, P52480 1-531 (enzyme; other documents disagree on this pair)
stoichiometry N: 4 and 2

— paper PMC11653614
